Laboratory results reported in paper doi:10.1101/2023.03.09.531943 (bioRxiv, 2023).
Numbering of substitutions follows the chain as printed.

T1: biotinylated CML13 (Arabidopsis thaliana, UniProt Q94AZ4 1-148, biotin, covalently conjugated (biotin-NHS ester), sites not stated)
T1 sequence: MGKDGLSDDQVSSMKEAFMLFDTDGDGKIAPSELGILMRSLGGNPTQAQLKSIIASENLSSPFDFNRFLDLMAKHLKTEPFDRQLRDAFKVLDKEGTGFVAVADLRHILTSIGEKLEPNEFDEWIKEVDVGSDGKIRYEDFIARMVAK

T2: biotinylated CML14 (Arabidopsis thaliana, UniProt Q8VZ50 1-148, biotin, covalently conjugated (biotin-NHS ester), sites not stated)
T2 sequence: T1 sequence with G2S, D8N, Q47E, A48S, A55T, S56T, E117Q, N119S

B1: IQD14-IQ1 synthetic peptide, residues 322-346 (peptide)
peptide: Ac-QHASATKIQGAFRGYMARKSFRALK-NH2
B2: recombinant CML13 (natural protein)
chain: T1 sequence
B3: IQD14-IQ1+2 synthetic peptide, residues 322-367 (peptide)
peptide: not shown
modifications: N-terminal acetylation; C-terminal amidation
B4: recombinant CML14 (natural protein)
chain: T1 sequence with G2S, D8N, Q47E, A48S, A55T, S56T, E117Q, N119S
B5: recombinant IQD14 (residues 307-418), all three putative IQ domains (domain or fragment)
chain: RREIVYRPEPTLPVQHASATKIQGAFRGYMARKSFRALKGLVRLQGVVRGYSVKRQTINAMKYMQQVVRVQSQIQSRRIKMLENQAQVEKDEAKWAASEAGNDNWDDSVLTK
B6: IQD14-IQ2 synthetic peptide, residues 344-367 (peptide)
peptide: Ac-ALKGLVRLQGVVRGYSVKRQTINA-NH2

Key:
recombinant CML14 = target: B4; experiment: ITC
recombinant CML13 = target: B2; experiment: ITC
[1] = target: recombinant CaM (petunia CaM81) (petunia, UniProt P62199 1-149); experiment: ITC
[2] = target: B3; experiment: AUC
biotinylated CML13 = target: T1, biotinylated CML13; experiment: far-Western, overlay or dot blot
biotinylated CML14 = target: T2, biotinylated CML14; experiment: far-Western, overlay or dot blot
[3] = target: biotinylated CaM (petunia CaM81) (petunia, UniProt P62199 1-149, biotin, covalently conjugated (biotin-NHS ester), sites not stated); experiment: far-Western, overlay or dot blot

Q: How did the Kd (recombinant CML14) turn out when B1 was run?
A: The Kd was 116 nM.

Q: What about the Kd (recombinant CML13) of the same binder?
A: Its Kd is 222 nM.

Q: What about the Kd [1] of the same binder?
A: Its Kd is 7 nM.

Q: With B2 as the binder, how does the “stoichiometry N” value [2] read?
A: The value was 1.

Q: Which results are given for B3?
A: binding result (recombinant CML14): binds; binding result (recombinant CML13): binds; binding result [1]: binds

Q: For B4, which “stoichiometry N” value [2] is on record?
A: Its value is 1.

Q: Does B5 bind (biotinylated CML13)?
A: Result: binds

Q: Does B5 bind (biotinylated CML14)?
A: Result: binds

Q: Does B5 bind [3]?
A: Result: binds

Q: Does B6 bind [1]?
A: Result: binds
